{
  "source": "paper PMC5374532",
  "about": "“Rational mutagenesis by engineering disulphide bonds improves Kluyveromyces lactis beta-galactosidase for high-temperature industrial applications” (Scientific Reports, 2017)",
  "key": {"[1]": {"molecular_target": "Kluyveromyces lactis β-galactosidase mutant R116C/T270C (Kluyveromyces lactis) (UniProt P00723)", "assay": "AUC; sedimentation velocity, 0.1 mg/mL enzyme, 50 mM Tris-HCl, 150 mM NaCl, pH 7.4, 48 k rpm, c(s) distribution (SEDFIT); self-association"}, "[2]": {"molecular_target": "Kluyveromyces lactis β-galactosidase mutant R116C/T270C (Kluyveromyces lactis) (UniProt P00723)", "assay": "AUC; sedimentation velocity, 0.2 mg/mL enzyme, 50 mM Tris-HCl, 150 mM NaCl, pH 7.4, 48 k rpm, c(s) distribution (SEDFIT); self-association, shares of monomer, dimer, trimer and tetramer"}, "[3]": {"molecular_target": "Kluyveromyces lactis β-galactosidase mutant R116C/T270C/G818C (Kluyveromyces lactis) (UniProt P00723)", "assay": "AUC; sedimentation velocity, 0.1 mg/mL enzyme, 50 mM Tris-HCl, 150 mM NaCl, pH 7.4, 48 k rpm, c(s) distribution (SEDFIT); self-association"}, "[4]": {"molecular_target": "Kluyveromyces lactis β-galactosidase mutant R116C/T270C/G818C (Kluyveromyces lactis) (UniProt P00723)", "assay": "AUC; sedimentation velocity, 0.2 mg/mL enzyme, 50 mM Tris-HCl, 150 mM NaCl, pH 7.4, 48 k rpm, c(s) distribution (SEDFIT); self-association, shares of monomer, dimer, trimer and tetramer"}},
  "data": [
    {"substance": "Kluyveromyces lactis β-galactosidase mutant R116C/T270C (from UniProt P00723 2-1025) (enzyme)", "values": [
      {"measurement": "increase in monomeric forms at 0.1 mg/mL against 0.2 mg/mL", "setting": "[1]", "result": 0.8, "unit": "%"},
      {"measurement": "percent of the protein as dimer", "setting": "[2]", "result": 20.9, "unit": "%"},
      {"measurement": "percent of the protein as monomer", "setting": "[2]", "result": 21.9, "unit": "%"},
      {"measurement": "percent of the protein as tetramer", "setting": "[2]", "result": 49.3, "unit": "%"},
      {"measurement": "percent of the protein as trimer", "setting": "[2]", "result": 7.9, "unit": "%"}
    ]},
    {"substance": "Kluyveromyces lactis β-galactosidase mutant R116C/T270C/G818C (from UniProt P00723 2-1025) (enzyme)", "values": [
      {"measurement": "increase in monomeric forms at 0.1 mg/mL against 0.2 mg/mL", "setting": "[3]", "result": 2.1, "unit": "%"},
      {"measurement": "percent of the protein as dimer", "setting": "[4]", "result": 57.2, "unit": "%"},
      {"measurement": "percent of the protein as monomer", "setting": "[4]", "result": 7.3, "unit": "%"},
      {"measurement": "percent of the protein as tetramer", "setting": "[4]", "result": 23, "unit": "%"},
      {"measurement": "percent of the protein as trimer", "setting": "[4]", "result": 12.6, "unit": "%"}
    ]}
  ]
}
